# Earlier results in patent US6835389B1, “Powder Composition for nasal administration” (Teijin Limited, priority 1998, dated 2004).
# Settings: 10 units of insulin to rabbits, nasal, Example 4 of Kokoku No. 62-42888
substance,measurement,value
insulin,absorption rate calculated from the AUC,≤ 10%
same,maximum blood concentration,≤ 200 μU/ml
same,maximum blood concentration relative to that of the injection administration,about 20%
